Measured values from patent US20210388087A1 (Chugai, published 2021).
Where a chain is given by its changes, count along the chain named. Names and notes keep the numbering of the source.

T1: Human CD3eg linker (human)
T1 construct: Single-chain construct; also called recombinant human CD3
T1 chain: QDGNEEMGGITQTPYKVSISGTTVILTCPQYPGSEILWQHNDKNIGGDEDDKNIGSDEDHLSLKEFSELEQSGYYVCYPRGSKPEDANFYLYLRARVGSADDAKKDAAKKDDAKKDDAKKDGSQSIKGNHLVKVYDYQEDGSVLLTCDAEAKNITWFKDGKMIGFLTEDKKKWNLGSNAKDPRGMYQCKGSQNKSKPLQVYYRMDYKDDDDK

B1: H183/L072 VL G91T (antibody, name in Kabat numbering, V domains shown)
VH: QVQLVESGGGLVQPGRSLRLSCAASGFTFSNAWMHWVRQAPGKGLEWVAQIKDKGNAYAAYYAPSVKGRFTISRDDSKNSIYLQMNSLKTEDTAVYYCHYVHYASASTVLPAFGVDAWGQGTTVTVSS
VL: DIVMTQSPLSLPVTPGEPASISCQASQELVHMNRNTYLHWYQQKPGQAPRLLIYKVSNRFPGVPDRFSGSGSGTDFTLKISRVEAEDVGVYYCAQTTSVPFTFGQGTKLEIK
B2: H183/L072 VL H27dF (antibody, name in Kabat numbering, V domains shown)
VH: B1 VH
VL: B1 VL with H31F, T96G
B3: H183/L072 VL H27dG (antibody, name in Kabat numbering, V domains shown)
VH: B1 VH
VL: B1 VL with H31G, T96G
B4: H183/L072 VL L27bI (antibody, name in Kabat numbering, V domains shown)
VH: B1 VH
VL: B1 VL with L29I, T96G
B5: H183/L072 VL L27bE (antibody, name in Kabat numbering, V domains shown)
VH: B1 VH
VL: B1 VL with L29E, T96G
B6: H183/L072 VL L27bM (antibody, name in Kabat numbering, V domains shown)
VH: B1 VH
VL: B1 VL with L29M, T96G
B7: H183/L072 VL H34K (antibody, name in Kabat numbering, V domains shown)
VH: B1 VH
VL: B1 VL with H39K, T96G
B8: H183/L072 VL H34S (antibody, name in Kabat numbering, V domains shown)
VH: B1 VH
VL: B1 VL with H39S, T96G
B9: H183/L072 VL H27dS (antibody, name in Kabat numbering, V domains shown)
VH: B1 VH
VL: B1 VL with H31S, T96G
B10: H183/L072 VL L27bQ (antibody, name in Kabat numbering, V domains shown)
VH: B1 VH
VL: B1 VL with L29Q, T96G
B11: H183/L072 VL H27dQ (antibody, name in Kabat numbering, V domains shown)
VH: B1 VH
VL: B1 VL with H31Q, T96G
B12: H183/L072 VL L27bK (antibody, name in Kabat numbering, V domains shown)
VH: B1 VH
VL: B1 VL with L29K, T96G
B13: H183/L072 VL K50T (antibody, name in Kabat numbering, V domains shown)
VH: B1 VH
VL: B1 VL with K55T, T96G
B14: H183/L072 VL K50R (antibody, name in Kabat numbering, V domains shown)
VH: B1 VH
VL: B1 VL with K55R, T96G
B15: H183/L072 VL H34A (antibody, name in Kabat numbering, V domains shown)
VH: B1 VH
VL: B1 VL with H39A, T96G
B16: H183/L072 VL H34Q (antibody, name in Kabat numbering, V domains shown)
VH: B1 VH
VL: B1 VL with H39Q, T96G
B17: H183/L072 VL K50S (antibody, name in Kabat numbering, V domains shown)
VH: B1 VH
VL: B1 VL with K55S, T96G
B18: H183/L072 VL L27bH (antibody, name in Kabat numbering, V domains shown)
VH: B1 VH
VL: B1 VL with L29H, T96G
B19: H183/L072 VL L27bP (antibody, name in Kabat numbering, V domains shown)
VH: B1 VH
VL: B1 VL with L29P, T96G
B20: H183/L072 VL L33G (antibody, name in Kabat numbering, V domains shown)
VH: B1 VH
VL: B1 VL with L38G, T96G
B21: H183/L072 VL H27dD (antibody, name in Kabat numbering, V domains shown)
VH: B1 VH
VL: B1 VL with H31D, T96G
B22: H183/L072 VL K50E (antibody, name in Kabat numbering, V domains shown)
VH: B1 VH
VL: B1 VL with K55E, T96G
B23: H183/L072 VL L33E (antibody, name in Kabat numbering, V domains shown)
VH: B1 VH
VL: B1 VL with L38E, T96G
B24: H183/L072 VL L27bA (antibody, name in Kabat numbering, V domains shown)
VH: B1 VH
VL: B1 VL with L29A, T96G
B25: H183/L072 VL L27bS (antibody, name in Kabat numbering, V domains shown)
VH: B1 VH
VL: B1 VL with L29S, T96G
B26: H183/L072 VL H34N (antibody, name in Kabat numbering, V domains shown)
VH: B1 VH
VL: B1 VL with H39N, T96G
B27: H183/L072 VL L27bT (antibody, name in Kabat numbering, V domains shown)
VH: B1 VH
VL: B1 VL with L29T, T96G
B28: H183/L072 VL L27bD (antibody, name in Kabat numbering, V domains shown)
VH: B1 VH
VL: B1 VL with L29D, T96G
B29: H183/L072 VL H34T (antibody, name in Kabat numbering, V domains shown)
VH: B1 VH
VL: B1 VL with H39T, T96G
B30: H183/L072 VL H34D (antibody, name in Kabat numbering, V domains shown)
VH: B1 VH
VL: B1 VL with H39D, T96G
B31: H183/L072 VL L27bN (antibody, name in Kabat numbering, V domains shown)
VH: B1 VH
VL: B1 VL with L29N, T96G
B32: H183/L072 VL H27dK (antibody, name in Kabat numbering, V domains shown)
VH: B1 VH
VL: B1 VL with H31K, T96G
B33: H183/L072 VL L33A (antibody, name in Kabat numbering, V domains shown)
VH: B1 VH
VL: B1 VL with L38A, T96G
B34: H183/L072 VL H34E (antibody, name in Kabat numbering, V domains shown)
VH: B1 VH
VL: B1 VL with H39E, T96G
B35: H183/L072 VL L33D (antibody, name in Kabat numbering, V domains shown)
VH: B1 VH
VL: B1 VL with L38D, T96G
B36: H183/L072 VL K50H (antibody, name in Kabat numbering, V domains shown)
VH: B1 VH
VL: B1 VL with K55H, T96G
B37: H183/L072 VL H27dT (antibody, name in Kabat numbering, V domains shown)
VH: B1 VH
VL: B1 VL with H31T, T96G
B38: H183/L072 VL H27dE (antibody, name in Kabat numbering, V domains shown)
VH: B1 VH
VL: B1 VL with H31E, T96G
B39: H183/L072 VL L27bF (antibody, name in Kabat numbering, V domains shown)
VH: B1 VH
VL: B1 VL with L29F, T96G
B40: H183/L072 VL H34G (antibody, name in Kabat numbering, V domains shown)
VH: B1 VH
VL: B1 VL with H39G, T96G
B41: H183/L072 VL L33F (antibody, name in Kabat numbering, V domains shown)
VH: B1 VH
VL: B1 VL with L38F, T96G
B42: H183/L072 VL H34L (antibody, name in Kabat numbering, V domains shown)
VH: B1 VH
VL: B1 VL with H39L, T96G
B43: H183/L072 VL H27dN (antibody, name in Kabat numbering, V domains shown)
VH: B1 VH
VL: B1 VL with H31N, T96G
B44: H183/L072 VL L27bV (antibody, name in Kabat numbering, V domains shown)
VH: B1 VH
VL: B1 VL with L29V, T96G
B45: H183/L072 VL K50D (antibody, name in Kabat numbering, V domains shown)
VH: B1 VH
VL: B1 VL with K55D, T96G

Molecular target: T1, Human CD3eg linker
Assay: SPR; fold vs parent H183/L072

Binder | fold change of affinity [fold]
B1 | 0
B2 | 0.2
B3 | 0
B4 | 0.5
B5 | 0
B6 | 0.7
B7 | 0.4
B8 | 0.5
B9 | 0
B10 | 0
B11 | 0
B12 | 0
B13 | 0
B14 | 0
B15 | 0.6
B16 | 0
B17 | 0
B18 | 0
B19 | 1.8
B20 | 0
B21 | 0
B22 | 0
B23 | 0

Binder | fold change of affinity [fold]
B24 | 0.7
B25 | 0
B26 | 0.2
B27 | 0.6
B28 | 0
B29 | 0.4
B30 | 0
B31 | 0
B32 | 0
B33 | 0.6
B34 | 0
B35 | 0
B36 | 0
B37 | 0
B38 | 0
B39 | 0.3
B40 | 0.3
B41 | 1.1
B42 | 0
B43 | 0
B44 | 1.7
B45 | 0
